Test results as given in patent publication US20190175684A1.
Square brackets hold non-standard residues; d marks the D form. Ends that are not written are not given here.

How the values were obtained:
annexin A1 [1] = experiment: QCM, peptide fixed on the sensor chip, Anxa1 injected at various doses
annexin A1 [2] = experiment: QCM (quartz crystal microbalance)

| Binder | Kd (annexin A1 [1]) [nM] | Kd (annexin A1 [2]) [nM] |
| --- | --- | --- |
| [dS][dP][dT][dS][dL][dL][dF] [dSPT7 peptide] | 90.3 |  |
| [dT][dI][dT][dW][dP][dT][dM] [dTIT7 peptide] |  | 45.7 |
| [dL][dL][dS][dW][dP][dS][dA] [dLLS7 peptide] | 54.2 |  |
| [dM][dP][dT][dL][dT][dF][dR] [dMPT7 peptide] | 298 |  |
| [dL][dR][dF][dP][dT][dV][dL] [dLRF7 peptide] | 31.2 |  |
